# Source: the supplement of paper PMC12455559
# ± gives the standard deviation of the averaged measurements.
# Legend:
# [1] = purified protein yield per well (BCA); higher = higher soluble expression
# Method in brief: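 Each candidate enzyme was grown in E. coli C41(DE3) in a 2 mL autoinduction culture (100 µg/mL kanamycin; 2 h at 37 °C, then 40 h at 18 °C) and purified robotically via Ni-charged magnetic beads with SUMO protease cleavage. Purified protein yield per well was assessed using the Pierce Rapid Gold BCA kit. Readings below 25 ug (0.1 mg/mL) are beneath the detection threshold.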
# [2] = melting temperature (DSF); higher = more thermostable
# Method: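 Candidate PET hydrolases were expressed in E. coli C41(DE3) in 2 mL autoinduction cultures in 24-deep-well plates, Ni-bead purified and released by SUMO protease cleavage on an OT-2 robot. Yield per well was measured by BCA; values below 25 ug (0.1 mg/mL) are below the detection threshold. Melting temperature was measured by differential scanning fluorimetry with Sypro Orange, ramping from 25 C at 0.3 C/step.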
# [3] = PET hydrolysis, aromatic products released after 48 h (umol product/mg enzyme); higher = more PET depolymerization activity
# Method: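 HTP-purified, SUMO-cleaved, tagless PET hydrolase candidates (5 ug, 1.43 mg/g PET) were incubated 48 h without shaking with 3.5 mg amorphous PET film (aFilm) or crystalline PET powder (cryPow) in 0.5 mL buffer: NaCitrate pH 4.5/5.5, NaPhosphate pH 6.5/7.5, glycine pH 8.5. Incubation was at 40 or 60 C. Aromatic products (TPA, MHET, BHET) in the supernatant were quantified by UV absorbance at 260/280 nm relative to buffer blanks and expressed per mg enzyme. LCC-ICCG was the positive control on every plate.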
# [4] = substrate: aFilm, 40 °C, pH 4.5
# [5] = substrate: aFilm, 40 °C, pH 5.5
# [6] = substrate: aFilm, 40 °C, pH 6.5
# [7] = substrate: aFilm, 40 °C, pH 7.5
# [8] = substrate: aFilm, 60 °C, pH 4.5
# [9] = substrate: aFilm, 60 °C, pH 5.5
# [10] = substrate: aFilm, 60 °C, pH 6.5
# [11] = substrate: aFilm, 60 °C, pH 7.5
# [12] = substrate: cryPow, 40 °C, pH 4.5
# [13] = substrate: cryPow, 40 °C, pH 5.5
# [14] = substrate: cryPow, 40 °C, pH 6.5
# [15] = substrate: cryPow, 40 °C, pH 7.5
# [16] = substrate: cryPow, 60 °C, pH 4.5
# [17] = substrate: cryPow, 60 °C, pH 5.5
# [18] = substrate: cryPow, 60 °C, pH 6.5
# [19] = substrate: cryPow, 60 °C, pH 7.5
# [20] = substrate: cryPow, 40 °C, pH 8.5
# [21] = substrate: cryPow, 60 °C, pH 8.5
Sequence,purified protein yield per well [1],melting temperature [2],"PET hydrolysis [3, 4]","PET hydrolysis [3, 5]","PET hydrolysis [3, 6]","PET hydrolysis [3, 7]","PET hydrolysis [3, 8]","PET hydrolysis [3, 9]","PET hydrolysis [3, 10]","PET hydrolysis [3, 11]","PET hydrolysis [3, 12]","PET hydrolysis [3, 13]","PET hydrolysis [3, 14]","PET hydrolysis [3, 15]","PET hydrolysis [3, 16]","PET hydrolysis [3, 17]","PET hydrolysis [3, 18]","PET hydrolysis [3, 19]","PET hydrolysis [3, 20]","PET hydrolysis [3, 21]","PET hydrolysis ([3]; substrate: aFilm, 40 °C, pH 8.5)","PET hydrolysis ([3]; substrate: aFilm, 60 °C, pH 8.5)"
ADNPYQRGPDPTVASVAATNGPFATAQLNVPSGNGFNGGTIYYPTDTSLGTWGAVAIVPGYTARFANEEAWMGPRLASFGFVVIGVETNSTTDWDTARGTQLLAALDYLTQKSSVRDRVDASRLAVIGHSMGGGGVVYAASQRPSLKAAIGLAPYAPSGNLSNVKVPMLIQGGQNDTVVTPSYLDGLYPTLPSSTPGAYVQYSGADHLFWTKANNIELRTQIPWLKIFLDNDTRYTQFMCPTLKDTASVAKYSAKCSLIPSAGSTTAPTTQPATSAPATTSPTTQPPSQPG [TEP083],356 µg,64.3 C,< 3,< 3,< 3,< 3,< 3,< 3,< 3,< 3,< 3,3 ± 4.2,< 3,< 3,< 3,< 3,< 3,< 3,–,–,–,–
ADNPYERGPDPTPASVAAPNGPFATAQVSVPPGYGFNGGMIYYPTDTSQGTFGAIAISPGYTALFSVELAWMGPRLASQGFVVIGIETNDRNDFDTARGTQLLAALDYLTGQSSVRSRVDPNRLAVAGHSMGGGGAFSAALRRPALKAAVGFTPFSPSQNLTNMQVPALLYSGQNDTVTTPSSVSNLYNGLPSTTEGAYLEAAGLDHSFPTRPNTLLMRTMIPWVKIFLDNDLRYTQFLCPLMDSSGVLQYRNTCPLVPPGLPSPSPTTAPPTTAPPTTAPPTTAPPTTAPPTTAPPTTAPPAGACTATYQTIGSWPGGFQGEVTVRAGNSAINGWTVGWSLGSGQSITQIWNGTLSTSGSSVSVRNVSYNGSLPAAGTVTFGFLGSGSPSTPSTVTCTSP [ESM012],519 µg,60.7 C,< 3,< 3,< 3,< 3,< 3,< 3,< 3,< 3,< 3,9.5 ± 3.5,21.5 ± 3.5,21.5 ± 0.71,< 3,< 3,< 3,< 3,–,–,–,–
MPPPDSGAAAHERVHAEPSDPATVGSAGGNPFARGPDPTLASVAAEFGPFATTQLSVPPGHGFNGGYVYYPTDASPTFGAVAIVPGYTALFADEEAWMGPRLASFGFVVIGIETNSREDWDRARGAQLLAALDYVTQHSTVRTRVDSSRLAVIGHSMGGGGAFAAATRRPSLKAVVGLAPYFPSGDLATVRVPTLIIGGQRDTTVTPSYLDDLYATLPTRTPSAYLMLADADHLFPTRPNPVEMRLLIPWLKIFVDRDTRYVRFLCPLADRSGIAQYRVTCPLVPPA [TEP003],152 µg,67.6 C,–,–,–,–,–,–,–,–,< 3,< 3,< 3,< 3,< 3,< 3,< 3,< 3,–,–,–,–
ADNPYQRGPDPTTASVAATRGTFATAEQTVGGGNGFAAGKIYYPIDTSQGTFGAIAIVPGYTATWAAEGAWMGPWLASFGFVVIGIDTNSRNDYDTARGTQLLAALDYLTQRSPVSGRVDAKRLSVMGHSMGGGGAVYAAIHRPSLWAAVGLAPFSPSQNLTTDKVPALLLAGQNDGTVSPSSVQSLYNGIPAGVEKGYLELAGAGHGFPTSSNSVMMRRVIPWLKIFVDHDSRYSKFLCPSLADSTGISGYRSTCPLDVPGGGDPGPGDQAVSLVGAGSGKCIDVPNQSQANGTALVVWTCNGGTNQRWTPTSAGELRVYNGTKCMDAGSGQPGTAVTINACGGGNSQKWTVNATGTITNAQAGACLDVSGGGTADNTPVIVWNCTGAANQVWTRQM [ESM103],48.2 µg,51.7 C,–,–,–,–,–,–,–,–,< 3,< 3,< 3,< 3,–,–,–,–,–,–,–,–
ADNPHQRGPNPTQASITANRGTFATAETSVGGGNGFGAAKIYYPTDTSQGTFGAIAVVPGYTATWAAEGAWMGHWLASFGFVVIGIDTLNRNDFDVARGTQLLAALDYLTQRSSVRTRVDPNRLAVMGHSMGGGGTISAALRWPTLKAAIGLAPYSPSQTTSGLQVPTMLLAGQNDGTSTPASIISLYNNIPASTEKSYLELAGAGHGFPTSNNSVMTRKVIPWMKIFIDQDARYTQFLCPLQDWTGIRSYRSSCPLLPGATFSLAGSASGKCVDVPGRVQTNGTGLIIWTCNGAVNQQWTRTAAGELRIYDNAKCMDANASGPGTRVTINSCNGGNSQKWTVNANGTVTNAASGRCIDTGGTADNAPVVVNTCTGGTSQT [ESM163],96.4 µg,58 C,–,–,–,–,–,–,–,–,< 3,< 3,< 3,< 3,< 3,< 3,< 3,< 3,–,–,–,–
DQGPPPTIASLSVDGAYAVMTYTDIPDVPEFGDATVYYPVDTAMPIGGVAISPGWTELQRHIEWWGPRLASHGYAVLILDTNDAMADQPEQRAEALIAAVRILRGENDRAGSPLSGRIDTEKMAIMGHSMGGGGVLIAANNYPAEIQAAIPFTPWQPAGDFSQVVAPTLVMAGSADRVASVSDHAWPHYQSIPESTIKVFLEIDGGSHFIADTSRGEDLGTIGRYGIAWLKLYLDGDERYRGFIYGDEAASDSEKFSRYVTSP [TEP021],76.5 µg,30.7 C,–,–,–,–,–,–,–,–,< 3,< 3,< 3,< 3,< 3,< 3,< 3,< 3,–,–,–,–
APDTVVGNPFARGPDPTKESIEAERGPFAVATEKVPGGKGFGGGTIHYPTDTSQGTFGAIAVAPGFTESESAIAWYGPRLASQGFVVITISTNGLWDLPASRADQLLAALRHVTDASQIKSRVDRDRLAVMGHSMGGGGSLIAARNNPALKATIPLTGWNPNTSFSDLKVPTFVVSAQNDFIAPDGSHSRPFYQSLPASLNKAYMRLAGVGHMAPVNPNVTIAKYSISWLKRFVDNDTRYSQFLCPLPTGDPKIAAYEGTCPLS [DP008],67 µg,50.5 C,–,–,–,–,–,–,–,–,–,4,20,40,–,< 3,9,9,50,9,–,–
AVHGPDPTDALLEASRGPYATAQIDVSALAVSGFGGGTIYYPTTTSEGTFGGVAIAPGYTADKSSLAWLAARLASHGFVVFNIDTLTRLDQPDSRGRQLLAALDYLTQRSSVRSRVDASRLGVMGHSMGGGGTLEAAVSRPSLRAAVPLTPWNLDKTWPEVRTPTLIIGADLDTIAPVLTHAEPFYASLPSTLDKAYLELNNATHFAPNITDTTIGKYAVAWMKRFIDDDTRYNRFLCPGPSWSLSVEEYRSTCPF [TEP061],299 µg,51.4 C,< 3,< 3,< 3,< 3,< 3,< 3,< 3,< 3,< 3,< 3,< 3,2 ± 2.8,< 3,< 3,< 3,< 3,–,–,–,–
AANPYERGPAPTDAVLEASRGPFATTSYSVSGLSVTGFGGGVVYYPTSTSEGTFGAIAISPGYTATWSSLSWLGPRIASHGFVVIGIETNTLLDQPDSRGRQLLAALDYLVQRSSVRGRIDAGRLAVAGHSMGGGGTLEAAAARPSLQAAVPLAPWNLDKTWSGVTVPTLIVGGESDSVAPVASHSVPFYNSIPASSEKAYLELNGASHFFPQSVNTPTAKQMVAWLKRFVDNDTRYEQFLCPGPSGLAIEEYRNTCPSS [TEP018],65.6 µg,40.6 C,–,–,–,–,–,–,–,–,< 3,< 3,< 3,< 3,< 3,< 3,< 3,< 3,–,–,–,–
ADTPYERGPNPSESLIEQRRGNYDIAQRSISRFSSDGFRNGTIYYPTDTSDGKFGVIAISPGYTAGESSIAWLGSRIASFGFVVVTINTTTRYDQPRQRSTQLLAALDHAMNDSVVGPLIDPERQAVMGHSMGGGGALQAAESRPEIDAVVALTPWNLKKNWDGVDAATLIIGAERDTVASVRTHSIPFYESLTQAEQRGYLELRGASHFAPNVSNTTIAKYSIAWMKRYLDNDDRYDQFLNPGPAVGYASGVSDYRLQ [DP003],185 µg,42.4 C,–,< 3,< 3,< 3,–,< 3,< 3,< 3,–,< 3,< 3,< 3,–,< 3,< 3,< 3,< 3,< 3,3 ± 4.2,< 3
ADNPYQRGPDPTRTSVTAVNGPFANTSVSVPTGYGFNGGRIYYPTDTSQGTFGAIAISPGYTALFSAELAWMGPWLASHGFVVIGIETNSRNDFDTARGTQLLAALDYLTQQSPVRDRVDPNRLAVAGHSMGGGGALSAAIRRPSLKAVVGIAPYSPSSNLANDRVPTMIFSGQADTVVTPSYATGLYNSLPATTESVYLEVAGADHGFMVGRSNPVMVRTMLPFVKMFIDDDARYSQFLCPLLDNSGVVTYRSTCPLLPTTPTTPPTGTPTPTPTPTQTTPPPGSASQIVGTQSGRCVDVPNASTTNGTRVQLYDCNRQTNQAWTYTSTKQLQVYGTMCLDAAGTGNGAAVQIYSCHSQTNQQWNVNSNGTISSVQSGRCLDAWSTANGAQIQLYDCHGQTNQQFRLAALA [ESM095],147 µg,63.7 C,–,–,–,–,–,–,–,–,11,21,22,10,< 3,< 3,< 3,< 3,–,–,–,–
QTNPYQKGPAPTVANLEAARGSFAVSSTSISSLSATGFGGGSLHYPTAAGTYGLIAVAPPYLAQSSSIAWLGPRLASHGFVVVMIDVNSTLDFPESRSRQQLAAIDYAIAQNARRTSPIYGKVDTTRRGVTGHSMGGGASILTARNSPANIKGAFPLTPWSSDKNFSNLQVPTGYLACQDDTVAGNADHSLNFYNRMPASTPKGYYELRGETHFCPQSTTNNPVIGKYLVAWMKRFVDNDTRFSPFLSGALPNADLSSGRFSVLRTSGL [DP075],33 µg,49.3 C,–,–,–,–,–,–,–,–,–,< 3,< 3,< 3,–,–,–,–,< 3,–,–,–
